Laboratory results from PMC5836831, “Candidate SNP markers of reproductive potential are predicted by a significant change in the affinity of TATA-binding protein for human gene promoters”.

B1: TPI1 promoter ODN, minor (rs1800202 g) (dsDNA)
DNA 1: CTCTATAGAAGTGGG
DNA 2: CCCACTTCTATAGAG
B2: TPI1 promoter ODN, ancestral (rs1800202 t) (dsDNA)
DNA 1: CTCTATATAAGTGGG
DNA 2: CCCACTTATATAGAG

Legend:
[1] = molecular target: T1, TATA-binding protein (TBP) (human, UniProt P20226 1-339); test: EMSA; details: EMSA: 20 mM HEPES-KOH pH 7.6, 5 mM MgCl2, 70 mM KCl, 1 mM EDTA, 100 ug/ml BSA, 0.01% NP-40, 5% glycerol, 25 C, 0.3 nM TBP titrated with ODN; stopped-flow: …
[2] = molecular target: T1, TATA-binding protein (TBP); test: stopped-flow fluorescence (FRET); EMSA: 20 mM HEPES-KOH pH 7.6, 5 mM MgCl2, 70 mM KCl, 1 mM EDTA, 100 ug/ml BSA, 0.01% NP-40, 5% glycerol, 25 C, 0.3 nM TBP titrated with ODN; stopped-flow: 0.1 uM ODN, 0.1-1.0 uM TBP, buffer not stated; details: protein: recombinant; label: 5'-TAMRA and 5'-FAM; blunt

T1 sequence (P20226 whole entry): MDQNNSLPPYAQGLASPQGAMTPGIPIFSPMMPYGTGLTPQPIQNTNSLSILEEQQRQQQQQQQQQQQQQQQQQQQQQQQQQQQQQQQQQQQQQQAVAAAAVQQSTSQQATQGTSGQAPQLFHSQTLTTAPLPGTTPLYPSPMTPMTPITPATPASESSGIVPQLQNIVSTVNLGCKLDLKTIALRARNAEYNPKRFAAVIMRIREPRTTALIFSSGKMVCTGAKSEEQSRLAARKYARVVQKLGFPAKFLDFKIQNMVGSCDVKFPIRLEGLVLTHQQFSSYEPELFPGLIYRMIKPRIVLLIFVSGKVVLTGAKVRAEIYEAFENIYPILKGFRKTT

| Molecule | Kd [1] [nM] | Kd [2] [nM] |
| --- | --- | --- |
| HBB promoter ODN, ancestral (rs33981098 a) | 44 |  |
| HBB promoter ODN, minor (rs33981098) | 90 |  |
| B1 |  | 6 |
| B2 |  | 1 |
